Laboratory results from PMC10453832, “Increased Actin Binding Is a Shared Molecular Consequence of Numerous SCA5 Mutations in β-III-Spectrin” (Cells, 2023).
Numbering of substitutions follows the chain as printed. Names and notes keep the numbering of the source.

B1: β-III-spectrin actin-binding domain Y272H (domain or fragment)
chain: MSSTLSPTDFDSLEIQGQYSDINNRWDLPDSDWDNDSSSARLFERSRIKALADEREAVQKKTFTKWVNSHLARVTCRVGDLYSDLRDGRNLLRLLEVLSGEILPKPTKGRMRIHCLENVDKALQFLKEQKVHLENMGSHDIVDGNHRLTLGLVWTIILRFQIQDISVETEDNKEKKSAKDALLLWCQMKTAGYPNVNVHNFTTSWRDGLAFNAIVHKHRPDLLDFESLKKCNAHYNLQNAFNLAEKELGLTKLLDPEDVNVDQPDEKSIITHVATYYHYFSKMK
notes: mutation found in a patient and a parent; also called Y272H ABD; source: Rosetta 2 (DE3) E. coli, purified (Ni-NTA, tag cleaved with Ulp1, second Ni-NTA)
B2: β-III-spectrin actin-binding domain, wild-type (domain or fragment)
chain: B1 chain with H272Y
notes: Construct pE-SUMO-ABD WT; also called ABD WT; wild-type ABD; source: Rosetta 2 (DE3) E. coli, purified (Ni-NTA, tag cleaved with Ulp1, second Ni-NTA)
B3: β-III-spectrin actin-binding domain H278R (domain or fragment)
chain: B1 chain with H272Y, H278R
notes: mutation found in a patient; also called H278R ABD; source: Rosetta 2 (DE3) E. coli, purified (Ni-NTA, tag cleaved with Ulp1, second Ni-NTA)
B4: β-III-spectrin actin-binding domain D255G (domain or fragment)
chain: B1 chain with D255G, H272Y
notes: mutation found in a patient; also called D255G ABD; source: Rosetta 2 (DE3) E. coli, purified (Ni-NTA, tag cleaved with Ulp1, second Ni-NTA)
B5: β-III-spectrin actin-binding domain T271I (domain or fragment)
chain: B1 chain with T271I, H272Y
notes: mutation found in a patient; also called T271I ABD; source: Rosetta 2 (DE3) E. coli, purified (Ni-NTA, tag cleaved with Ulp1, second Ni-NTA)
B6: β-III-spectrin actin-binding domain V58M (domain or fragment)
chain: B1 chain with V58M, H272Y
notes: mutation found in a patient; also called V58M ABD; source: Rosetta 2 (DE3) E. coli, purified (Ni-NTA, tag cleaved with Ulp1, second Ni-NTA)
B7: β-III-spectrin actin-binding domain K65E (domain or fragment)
chain: B1 chain with K65E, H272Y
notes: mutation found in a patient; also called K65E ABD; source: Rosetta 2 (DE3) E. coli, purified (Ni-NTA, tag cleaved with Ulp1, second Ni-NTA)
B8: β-III-spectrin actin-binding domain T62I (domain or fragment)
chain: B1 chain with T62I, H272Y
notes: mutation found in a patient; also called T62I ABD; source: Rosetta 2 (DE3) E. coli, purified (Ni-NTA, tag cleaved with Ulp1, second Ni-NTA)
B9: β-III-spectrin actin-binding domain F160C (domain or fragment)
chain: B1 chain with F160C, H272Y
notes: mutation found in a patient; The methods paragraph prints F16C, everywhere else F160C; also called F160C ABD; F16C (as printed in the methods); source: Rosetta 2 (DE3) E. coli, purified (Ni-NTA, tag cleaved with Ulp1, second Ni-NTA)
B10: β-III-spectrin actin-binding domain L253P (domain or fragment)
chain: B1 chain with L253P, H272Y
notes: Construct pE-SUMO-ABD-L253P; Mutation found in SCA5 patients; also called L253P ABD; source: Rosetta 2 (DE3) E. coli, purified (Ni-NTA, tag cleaved with Ulp1, second Ni-NTA)
B11: β-III-spectrin actin-binding domain K61E (domain or fragment)
chain: B1 chain with K61E, H272Y
notes: mutation found in a patient; also called K61E ABD; source: Rosetta 2 (DE3) E. coli, purified (Ni-NTA, tag cleaved with Ulp1, second Ni-NTA)

Molecular target: T1, F-actin from rabbit skeletal muscle (rabbit, UniProt P68135 1-377)
Assay: co-sedimentation; 2 µM ABD protein with increasing F-actin (3-120 µM) in F-buffer (10 mM Tris pH 7.5, 150 mM NaCl, 0.5 mM ATP, 2 mM MgCl2, 1 mM DTT); 30 min at room temperature; 50,000 RPM 30 min 25 °C; ABD left in supernatant quantified by SDS-PAGE and Coomassie; one-site fit with Bmax constrained to 1
Conditions: both partners purified

| Kd | Binder |
| --- | --- |
| 15.5 µM | B1 |

Molecular target: T1, F-actin from rabbit skeletal muscle
Assay: as above
Conditions: both partners purified
Remark: another data set of the same source

| Kd | Binder |
| --- | --- |
| 55.2 µM | B2 |
| 6.7 µM | B3 |
| 7.3 µM | B4 |
| < 1 µM | B5 |
| 10.2 µM | B6 |
| < 1 µM | B7 |
| 15.3 µM | B1 |
| 2.4 µM | B8 |
| < 1 µM | B9 |
| < 1 µM | B10 |
| < 1 µM | B11 |
